Reference: article PMC11844651, “How RAG1/2 evolved from ancestral transposases to initiate V(D)J recombination without transposition” (Research Square, 2025)

Target: T1, mouse RAG1 (aa 265–1040) (mouse, UniProt P15919 265-1040)
T1 sequence (looked up): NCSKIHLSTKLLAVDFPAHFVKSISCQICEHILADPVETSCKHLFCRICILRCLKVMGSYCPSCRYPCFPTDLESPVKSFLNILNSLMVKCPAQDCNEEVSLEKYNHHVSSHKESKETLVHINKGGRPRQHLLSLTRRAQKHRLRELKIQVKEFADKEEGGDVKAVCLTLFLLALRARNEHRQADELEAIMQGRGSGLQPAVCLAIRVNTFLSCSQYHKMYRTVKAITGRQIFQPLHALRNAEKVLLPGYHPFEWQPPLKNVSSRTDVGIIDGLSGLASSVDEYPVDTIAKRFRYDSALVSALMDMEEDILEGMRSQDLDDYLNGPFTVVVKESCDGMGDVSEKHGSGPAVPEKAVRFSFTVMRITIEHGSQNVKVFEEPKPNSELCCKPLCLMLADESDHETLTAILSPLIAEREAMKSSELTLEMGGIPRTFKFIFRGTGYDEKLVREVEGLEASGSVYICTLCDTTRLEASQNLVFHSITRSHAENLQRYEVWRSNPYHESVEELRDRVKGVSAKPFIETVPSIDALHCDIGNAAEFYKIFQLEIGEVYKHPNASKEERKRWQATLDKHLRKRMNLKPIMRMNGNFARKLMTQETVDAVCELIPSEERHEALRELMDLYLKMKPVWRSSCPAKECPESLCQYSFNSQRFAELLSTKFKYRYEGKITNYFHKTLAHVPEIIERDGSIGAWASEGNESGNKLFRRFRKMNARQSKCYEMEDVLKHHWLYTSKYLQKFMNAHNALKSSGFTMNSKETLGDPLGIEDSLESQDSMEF
Test: cell-based or functional assay

RSS DNA hairpinning (pre-nicked RSS substrates) with the long (21 aa) H3K4me3 peptide (1 μM) against no peptide: < 2 fold
transposition of SEC into supercoiled pUC19 (double-ended joint product) with the long (21 aa) H3K4me3 peptide (20 μM) against no peptide: 22 fold
B1: mouse T490A RAG2 (aa 1–520) (natural protein, UniProt P21784 1-520, looked up)
chain: MSLQMVTVGHNIALIQPGFSLMNFDGQVFFFGQKGWPKRSCPTGVFHFDIKQNHLKLKPAIFSKDSCYLPPLRYPATCSYKGSIDSDKHQYIIHGGKTPNNELSDKIYIMSVACKNNKKVTFRCTEKDLVGDVPEPRYGHSIDVVYSRGKSMGVLFGGRSYMPSTQRTTEKWNSVADCLPHVFLIDFEFGCATSYILPELQDGLSFHVSIARNDTVYILGGHSLASNIRPANLYRIRVDLPLGTPAVNCTVLPGGISVSSAILTQTNNDEFVIVGGYQLENQKRMVCSLVSLGDNTIEISEMETPDWTSDIKHSKIWFGSNMGNGTIFLGIPGDNKQAMSEAFYFYTLRCSEEDLSEDQKIVSNSQTSTEDPGDSTPFEDSEEFCFSAEATSFDGDDEFDTYNEDDEDDESVTGYWITCCPTCDVDINTWVPFYSTELNKPAMIYCSHGDGHWVHAQCMDLEERTLIHLSEGSNKYYCNEHVQIARALQAPKRNPPLQKPPMKSLHKKGSGKVLTPAKKS
